Changes are numbered by the printed parent chain. In names and notes the source's numbering stands.

For assay [1], the target named is biot-MPV-F D280N (metapneumovirus (MPV)). Description: BLI, SA sensor loaded with biot-MPV-F D280N (sheet title 'MPV-G D280N'; head of the value column printed 'MPV-F', not 'KD (M)'), mAb 5 ug/ml, 4 min association, 6 min dissociation.
Assay [2] deals with fusion glycoprotein (F) of the MPV used in the neutralization of Table 34 (metapneumovirus). The assay is described as follows: cell-based or functional assay.
Assay [3] deals with RSV fusion glycoprotein (RSV-F) of the RSV used in the neutralization of Table 33 (respiratory syncytial virus, strain not stated). The assay is described as follows: cell-based or functional assay.
Assay [4] deals with biot-MPV-F wt (metapneumovirus (MPV)). Description: BLI, SA sensor loaded with biot-MPV-F wt, mAb 5 ug/ml, 4 min association, 6 min dissociation.
Assay [5] deals with MPV F WT expressed on transfected Expi293F cells (metapneumovirus (MPV)). Description: flow cytometry, transfected Expi293F cells, fixed and permeabilised. A general note: Flow cytometry measures light scatter and fluorescence of single cells or particles in a stream.
Assay [6] concerns the target MPV F D280N mutant expressed on transfected Expi293F cells (metapneumovirus (MPV)). The description is as above.
Assay [7] concerns the target biot-MPV-F D280N (metapneumovirus (MPV)). The assay is described as follows: BLI (Octet), biotinylated F on SA sensors, mAb 5 µg/ml.
Assay [8] concerns the target biot-MPV-F wt (metapneumovirus (MPV)). The assay is described as above.
The target of assay [9] is biot-RSV-F wt (respiratory syncytial virus (RSV)). The assay is described as above.
For assay [10] the target is unchanged. The assay is described as follows: BLI, SA sensor loaded with biot-RSV-F wt, mAb 5 ug/ml, 4 min association, 6 min dissociation. In general terms: Biolayer interferometry detects binding as a change in optical thickness at a sensor tip.
For assay [11], the target named is MPV fusion glycoprotein without the D280N mutation (MPV-F D280) (metapneumovirus). The assay is described as follows: biolayer interferometry (BLI), rIgG1 with M428L/N434S.
Assay [12] has as its target MPV fusion glycoprotein with the D280N mutation (MPV-F N280) (metapneumovirus). The description is as above.
Assay [13] has as its target DS-Cav1 RSV F (respiratory syncytial virus). The assay is described as follows: ELISA on DS-Cav1 RSV F. A general note: ELISA stands for enzyme-linked immunosorbent assay.
The target in assay [14] is biot-MPV-F D280N (metapneumovirus (MPV)). The assay is described as follows: BLI, SA sensor loaded with biot-MPV-F D280N (sheet title 'MPV-G D280N'), mAb 5 ug/ml, 4 min association, 6 min dissociation.
In assay [15] the target is RSV-B B9320 F protein (RSV B, strain B9320). The assay is described as follows: cell-based or functional assay.
Assay [16] deals with RSV-B B18537/62 F protein (RSV B, strain B18537/62) (UniProt P13843). Description: cell-based or functional assay.
In assay [17] the target is RSV-long strain fusion glycoprotein (F) (RSV, long strain) (UniProt P12568). Description: cell-based or functional assay.

B1: MPK104-v1.1-rIgG1m17,1-LS (antibody, V domains shown)
VH: QVQLVESGGGLVKPGGSLRLSCAASGFTIDGYGMNWVRQAPGKGLEWVSSISASSNYIYYADSMKGRFTISRDNGKNSLYLQMHSLRVEDTGVYYCARAPLEPPYFDLWGRGTLVTVSS
VL: QSVLTQPPSVSGAPGQRVTISCSGGSSNIGAGYDVHWYQQVPGKGPKVLIYGNNNRPSGVPDRFSGSNFGASASLAITGLQADDEADYFCQSYDRRLGGPVFGGGTKLTVL
Consider B1, for which the dissociation constant Kd – broadly, the free concentration of one partner at which half of the binding sites on the other are occupied at equilibrium, for simple one-to-one binding – is 0.497 nM in assay [1] and below 0.001 nM in [4]. Moreover, the IC50 (ng/mL) in neutralization against MPV in [2] came out at 1.36 ng/mL. Further, the IC50 (ng/mL) in neutralization against RSV in assay [3] worked out at 6.61 ng/mL. Moreover, the Binding (FACS) relative to parental mAb MPK104-v1.1 in assay [5] and in assay [6] was 1 in each case.

B2: MPK104-v1.3-rIgG1m17,1-LS (antibody, V domains shown)
VH: B1 VH
VL: B1 VL with N54T, D83E
On to B2, for which the dissociation constant Kd in assay [7] was 0.37 nM; in [8] it was below 0.001 nM; in assay [1], 0.49 nM; in assay [4], below 0.001 nM. The molecule further registered an IC50 (ng/mL) in neutralization against MPV in assay [2] of 1.16 ng/mL. Moreover, the IC50 (ng/mL) in neutralization against RSV in [3] was found to be 4.8 ng/mL. Also, the Binding (FACS) relative to parental mAb MPK104-v1.1 in [5] amounted to 1; in [6] it was 1.1.

B3: MPK104-rIgG1-LS (antibody, V domains shown)
VH: B1 VH with Q1E
VL: B1 VL
B3: the Kd was 0.391 nM in [7]; 0.306 nM in [9]; below 0.001 nM in assay [8]; 0.0373 nM in assay [10]; 0.472 nM in assay [1]; below 0.001 nM in [4].

B4: MPH12-rIgG1-LS (antibody, V domains shown)
VH: QVQLVESGGGLVKPGGSLRLSCVASGFTFSGFYMKWIRQAPGKGLEWVSSISASGSYTNYADSVEGRFTVSRDNAKNSLFLLMSSLRAEDTAVYYCARGDSYCGASACHGEFFHKWGQGTLVTVSS
VL: QSVLTQPPSVSGAPGQRVTISCTGSDSNIGADFDVHWYQQLPGTAPKLLIYGNINRPSGVPDRFSGSRSGTSAFLAITRLQAEDEADYYCQSYDRSLHYVFGAGTKVTVL
Consider B4, for which the dissociation constant Kd in assay [7] was 1.01 nM; in assay [9] it was 1.2 nM; in assay [8], below 0.001 nM. Besides, the IC50 (ng/mL) in neutralization against MPV in assay [2] was 5.26 ng/mL. Besides, in assay [3], the IC50 (ng/mL) in neutralization against RSV stood at 12.9 ng/mL.

B5: MPH12-v35 (VH-FRGL-D62E/VL-FRGL-D25S) (antibody, V domains shown)
VH: B4 VH with V23A, D62E, V70I, F80Y, L82Q, S84N
VL: B4 VL with D26S, R68K, F74S, R79G, A103T
Regarding B5, the equilibrium dissociation constant (Kd) in assay [11] is 0.028 nM; in assay [12], 0.78 nM.

B6: MPH12-v17 (VH-FRGL-D62E/VL-D25S) (antibody, V domains shown)
VH: B4 VH with V23A, D62E, V70I, F80Y, L82Q, S84N
VL: B4 VL with D26S
As to B6, the concentration for a half-maximal effect (EC50) (usually the concentration needed to bring the measured effect to its halfway point) in assay [13] stood at 25.1 ng/mL. The dissociation constant (Kd) in assay [11] came out at 0.028 nM; in assay [12] it was 0.55 nM.

B7: MPH12-v34 (VH-FRGL-S63A/VL-FRGL-D25S) (antibody, V domains shown)
VH: B4 VH with V23A, S63A, V70I, F80Y, L82Q, S84N
VL: B4 VL with D26S, R68K, F74S, R79G, A103T
On to B7, for which the dissociation constant (Kd) in [11] came out at 0.039 nM; in assay [12], 0.82 nM.

B8: MPH12 VH / MPH12 VL-FRGL-D25E (antibody, V domains shown)
VH: B4 VH
VL: B4 VL with D26E, R68K, F74S, R79G, A103T
For the molecule B8, the EC50 in assay [13] turned out to be 30.6 ng/mL.

B9: MPH12-v29 (VH-FRGL-D62E/VL-S26A) (antibody, V domains shown)
VH: B4 VH with V23A, D62E, V70I, F80Y, L82Q, S84N
VL: B4 VL with S27A
B9 gave a concentration for a half-maximal effect (EC50) in assay [13] of 42.5 ng/mL. The results for the Kd in assay [11] and in assay [12] were 0.027 nM and 0.64 nM, respectively.

B10: MPK190-v1.1-rIgG1m17,1-LS (antibody, V domains shown)
VH: QVQLVESGGGLVKPGGSLTLSCAASGFSISGYGMNWVRQAPGRGLEWVASISASSTYIYYADSMKGRFTISRDNGKTSLYLQMKSLRAEDTAVYYCARAPIEPPYFDLWGRGTLVTVSS
VL: QSVLTQPPSVSGAPGQRVTISCTGSNSNIGAGYDVHWYQHLPGKAPKVLIYGNNNRPSVVPDRFSGSNSGASASLAISGLQAEDEADYFCQSYDRRLSGPIFGGGTKLTVL
In the case of B10, the Kd was 0.362 nM in assay [7], below 0.001 nM in assay [8], 0.402 nM in assay [14] and below 0.001 nM in assay [4]. Besides, in [2], the IC50 (ng/mL) in neutralization against MPV turned out to be 0.705 ng/mL. This molecule gave an IC50 (ng/mL) in neutralization against RSV in assay [3] of 5.8 ng/mL. In addition, the Binding (FACS) relative to parental mAb MPK190-v1.1 in [5] and in [6] was 1 each time.

B11: MPK190-rFab (Fab, V domains shown)
VH: B10 VH with Q1E
VL: B10 VL
With B11, the EC50, virus neutralization (Fab testing) in assay [15] stood at 0.0325 nM; in assay [16] it was 0.0633 nM; in assay [17], 0.0979 nM.

B12: MPK77-rIgG1-LS (antibody, V domains shown)
VH: EVQLVESGGGLVKPGGSLRLSCAASKSFSGYYMIWIRQAPGRGLEWIADISGSSTYTDYADSVKGRFTISRDNTRNTLYLQMNSLRPEDTAVYYCATEQVPSPGPFDLWGPGTLVTVSS
VL: QSVLTQPPSVSGAPGQRVIISCTGSSSNIGAGYDVHWYQQFPGTSPKLLIYRNTNRPSGVPDRFSGFKSGASAALAITGLQAEDEADYYCQSYDRSLSGWAFGGGTKVTVL
Take B12: the Kd is 0.394 nM in [7]; 0.00228 nM in assay [9]; below 0.001 nM in [8]; below 0.001 nM in assay [10]; 0.406 nM in [14]; below 0.001 nM in assay [4].

(Values after patent US20260028391A1.)
